Assay results reported in article doi:10.1101/2020.10.07.330233v1.

B1: β-glucosidase B (BglB) (Paenibacillus polymyxa) (protein)
chain: MSENTFIFPATFMWGTSTSSYQIEGGTDEGGRTPSIWDTFCQIPGKVIGGDCGDVACDHFHHFKEDVQLMKQLGFLHYRFSVAWPRIMPAAGIINEEGLLFYEHLLDEIELAGLIPMLTLYHWDLPQWIEDEGGWTQRETIQHFKTYASVIMDRFGERINWWNTINEPYCASILGYGTGEHAPGHENWREAFTAAHHILMCHGIASNLHKEKGLTGKIGITLNMEHVDAASERPEDVAAAIRRDGFINRWFAEPLFNGKYPEDMVEWYGTYLNGLDFVQPGDMELIQQPGDFLGINYYTRSIIRSTNDASLLQVEQVHMEEPVTDMGWEIHPESFYKLLTRIEKDFSKGLPILITENGAAMRDELVNGQIEDTGRHGYIEEHLKACHRFIEEGGQLKGYFVWSFLDNFEWAWGYSKRFGIVHINYETQERTPKQSALWFKQMMAKNGF
B2: β-glucosidase B (BglB) (Paenibacillus polymyxa; I23A) (protein)
chain: MSENTFIFPATFMWGTSTSSYQAEGGTDEGGRTPSIWDTFCQIPGKVIGGDCGDVACDHFHHFKEDVQLMKQLGFLHYRFSVAWPRIMPAAGIINEEGLLFYEHLLDEIELAGLIPMLTLYHWDLPQWIEDEGGWTQRETIQHFKTYASVIMDRFGERINWWNTINEPYCASILGYGTGEHAPGHENWREAFTAAHHILMCHGIASNLHKEKGLTGKIGITLNMEHVDAASERPEDVAAAIRRDGFINRWFAEPLFNGKYPEDMVEWYGTYLNGLDFVQPGDMELIQQPGDFLGINYYTRSIIRSTNDASLLQVEQVHMEEPVTDMGWEIHPESFYKLLTRIEKDFSKGLPILITENGAAMRDELVNGQIEDTGRHGYIEEHLKACHRFIEEGGQLKGYFVWSFLDNFEWAWGYSKRFGIVHINYETQERTPKQSALWFKQMMAKNGF
B3: β-glucosidase B (BglB) (Paenibacillus polymyxa; A360S) (protein)
chain: MSENTFIFPATFMWGTSTSSYQIEGGTDEGGRTPSIWDTFCQIPGKVIGGDCGDVACDHFHHFKEDVQLMKQLGFLHYRFSVAWPRIMPAAGIINEEGLLFYEHLLDEIELAGLIPMLTLYHWDLPQWIEDEGGWTQRETIQHFKTYASVIMDRFGERINWWNTINEPYCASILGYGTGEHAPGHENWREAFTAAHHILMCHGIASNLHKEKGLTGKIGITLNMEHVDAASERPEDVAAAIRRDGFINRWFAEPLFNGKYPEDMVEWYGTYLNGLDFVQPGDMELIQQPGDFLGINYYTRSIIRSTNDASLLQVEQVHMEEPVTDMGWEIHPESFYKLLTRIEKDFSKGLPILITENGASMRDELVNGQIEDTGRHGYIEEHLKACHRFIEEGGQLKGYFVWSFLDNFEWAWGYSKRFGIVHINYETQERTPKQSALWFKQMMAKNGF
B4: β-glucosidase B (BglB) (Paenibacillus polymyxa; I23V) (protein)
chain: MSENTFIFPATFMWGTSTSSYQVEGGTDEGGRTPSIWDTFCQIPGKVIGGDCGDVACDHFHHFKEDVQLMKQLGFLHYRFSVAWPRIMPAAGIINEEGLLFYEHLLDEIELAGLIPMLTLYHWDLPQWIEDEGGWTQRETIQHFKTYASVIMDRFGERINWWNTINEPYCASILGYGTGEHAPGHENWREAFTAAHHILMCHGIASNLHKEKGLTGKIGITLNMEHVDAASERPEDVAAAIRRDGFINRWFAEPLFNGKYPEDMVEWYGTYLNGLDFVQPGDMELIQQPGDFLGINYYTRSIIRSTNDASLLQVEQVHMEEPVTDMGWEIHPESFYKLLTRIEKDFSKGLPILITENGAAMRDELVNGQIEDTGRHGYIEEHLKACHRFIEEGGQLKGYFVWSFLDNFEWAWGYSKRFGIVHINYETQERTPKQSALWFKQMMAKNGF
B5: β-glucosidase B (BglB) (Paenibacillus polymyxa; I48K) (protein)
chain: MSENTFIFPATFMWGTSTSSYQIEGGTDEGGRTPSIWDTFCQIPGKVKGGDCGDVACDHFHHFKEDVQLMKQLGFLHYRFSVAWPRIMPAAGIINEEGLLFYEHLLDEIELAGLIPMLTLYHWDLPQWIEDEGGWTQRETIQHFKTYASVIMDRFGERINWWNTINEPYCASILGYGTGEHAPGHENWREAFTAAHHILMCHGIASNLHKEKGLTGKIGITLNMEHVDAASERPEDVAAAIRRDGFINRWFAEPLFNGKYPEDMVEWYGTYLNGLDFVQPGDMELIQQPGDFLGINYYTRSIIRSTNDASLLQVEQVHMEEPVTDMGWEIHPESFYKLLTRIEKDFSKGLPILITENGAAMRDELVNGQIEDTGRHGYIEEHLKACHRFIEEGGQLKGYFVWSFLDNFEWAWGYSKRFGIVHINYETQERTPKQSALWFKQMMAKNGF

Substrate: O=[N+]([O-])c1ccc(O[C@@H]2O[C@H](CO)[C@@H](O)[C@H](O)[C@H]2O)cc1
Assay: purified protein
Conditions: 1 hour assay
[1] = average of two wild-type replicates (WT-1, WT-2)

Protein | Km [1] [mM] | kcat [1] [s⁻¹] | Km (technical triplicate) [mM] | kcat (technical triplicate) [s⁻¹]
B1 | 9.8 ± 2.2 | 10.37 ± 0.763 | – | –
B2 | – | – | 17.1 ± 1.1 | 1.54 ± 0.035
B3 | – | – | 12.7 ± 1.4 | 1.55 ± 0.0533
B4 | – | – | 12.7 ± 0.53 | 9.4 ± 0.125
B5 | – | – | 4.2 ± 0.1 | 4.998 ± 0.04
